Measurements reported in patent publication US20220363757A1 (SYMPHOGEN A S, published 2022).

T1: human LAG-3 domain 1-2 Fc fusion, point mutation #72 S133A (human, UniProt P18627 23-266)
T1 construct: not shown: human IgG1 Fc, AA P101-K330
T1 sequence: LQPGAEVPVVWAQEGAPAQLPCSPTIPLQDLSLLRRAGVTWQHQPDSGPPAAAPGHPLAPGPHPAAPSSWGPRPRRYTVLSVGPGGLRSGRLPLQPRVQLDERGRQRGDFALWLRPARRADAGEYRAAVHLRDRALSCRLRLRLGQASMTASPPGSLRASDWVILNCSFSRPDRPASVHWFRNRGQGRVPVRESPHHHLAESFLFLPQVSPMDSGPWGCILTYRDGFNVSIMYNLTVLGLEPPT

T2: human LAG-3 domain 1-2 Fc fusion, point mutation #76 D143A (human, UniProt P18627 23-266)
T2 construct: not shown: human IgG1 Fc, AA P101-K330
T2 sequence: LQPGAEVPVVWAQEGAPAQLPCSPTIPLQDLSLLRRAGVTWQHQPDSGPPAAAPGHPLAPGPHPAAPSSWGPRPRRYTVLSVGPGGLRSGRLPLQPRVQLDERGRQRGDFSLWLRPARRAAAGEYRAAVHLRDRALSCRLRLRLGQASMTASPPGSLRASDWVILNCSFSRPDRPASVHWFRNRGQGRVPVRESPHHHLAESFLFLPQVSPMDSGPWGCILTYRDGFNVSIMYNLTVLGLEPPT

T3: human LAG-3 domain 1-2 Fc fusion, point mutation #33 P86A (human, UniProt P18627 23-266)
T3 construct: not shown: human IgG1 Fc, AA P101-K330
T3 sequence: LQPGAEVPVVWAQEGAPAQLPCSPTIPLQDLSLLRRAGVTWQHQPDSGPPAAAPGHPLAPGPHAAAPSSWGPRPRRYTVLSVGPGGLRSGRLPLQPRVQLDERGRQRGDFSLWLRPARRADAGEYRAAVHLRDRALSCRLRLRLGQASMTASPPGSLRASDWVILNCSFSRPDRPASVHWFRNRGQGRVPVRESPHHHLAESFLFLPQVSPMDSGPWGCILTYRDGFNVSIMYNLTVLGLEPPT

T4: human LAG-3 domain 1-2 Fc fusion, point mutation #36 P89A (human, UniProt P18627 23-266)
T4 construct: not shown: human IgG1 Fc, AA P101-K330
T4 sequence: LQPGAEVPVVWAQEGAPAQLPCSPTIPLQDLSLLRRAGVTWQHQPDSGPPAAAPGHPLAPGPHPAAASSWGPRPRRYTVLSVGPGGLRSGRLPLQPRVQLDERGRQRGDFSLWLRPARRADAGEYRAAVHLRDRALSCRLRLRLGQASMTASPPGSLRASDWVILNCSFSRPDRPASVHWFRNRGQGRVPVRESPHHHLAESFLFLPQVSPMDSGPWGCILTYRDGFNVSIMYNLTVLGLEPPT

T5: human LAG-3 domain 1-2 Fc fusion, point mutation #11 L56A (human, UniProt P18627 23-266)
T5 construct: not shown: human IgG1 Fc, AA P101-K330
T5 sequence: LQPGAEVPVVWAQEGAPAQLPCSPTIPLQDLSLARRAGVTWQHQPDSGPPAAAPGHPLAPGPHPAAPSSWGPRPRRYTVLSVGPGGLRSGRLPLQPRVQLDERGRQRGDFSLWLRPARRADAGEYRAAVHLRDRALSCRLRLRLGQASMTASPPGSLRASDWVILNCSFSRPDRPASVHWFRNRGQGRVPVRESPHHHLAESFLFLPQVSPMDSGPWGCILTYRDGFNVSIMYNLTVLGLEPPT

T6: human LAG-3 domain 1-2 Fc fusion, point mutation #56 G112A (human, UniProt P18627 23-266)
T6 construct: not shown: human IgG1 Fc, AA P101-K330
T6 sequence: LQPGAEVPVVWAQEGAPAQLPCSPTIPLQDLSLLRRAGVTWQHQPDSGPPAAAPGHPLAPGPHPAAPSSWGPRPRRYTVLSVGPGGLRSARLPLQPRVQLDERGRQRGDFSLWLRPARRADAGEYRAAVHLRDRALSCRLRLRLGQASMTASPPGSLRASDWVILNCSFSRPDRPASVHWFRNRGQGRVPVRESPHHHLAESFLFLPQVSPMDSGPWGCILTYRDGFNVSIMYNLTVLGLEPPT

T7: human LAG-3 domain 1-2 Fc fusion, point mutation #14 T62A (human, UniProt P18627 23-266)
T7 construct: not shown: human IgG1 Fc, AA P101-K330
T7 sequence: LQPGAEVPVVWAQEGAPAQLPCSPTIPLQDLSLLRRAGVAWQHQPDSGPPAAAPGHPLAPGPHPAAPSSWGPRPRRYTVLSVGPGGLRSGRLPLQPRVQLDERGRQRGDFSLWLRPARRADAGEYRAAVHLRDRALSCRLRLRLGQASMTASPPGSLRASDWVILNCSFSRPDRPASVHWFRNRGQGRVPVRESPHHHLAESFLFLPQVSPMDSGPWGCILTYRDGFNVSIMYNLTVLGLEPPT

T8: human LAG-3 domain 1-2 Fc fusion, point mutation #34 A87S (human, UniProt P18627 23-266)
T8 construct: not shown: human IgG1 Fc, AA P101-K330
T8 sequence: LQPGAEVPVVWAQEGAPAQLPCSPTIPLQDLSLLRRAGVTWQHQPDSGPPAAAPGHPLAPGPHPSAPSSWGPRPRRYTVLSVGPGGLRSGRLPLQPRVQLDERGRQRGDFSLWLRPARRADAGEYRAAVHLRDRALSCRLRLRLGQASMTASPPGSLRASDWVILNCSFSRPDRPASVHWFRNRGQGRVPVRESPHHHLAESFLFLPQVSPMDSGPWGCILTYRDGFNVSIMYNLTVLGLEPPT

B1: Fab fragment of antibody 15011 (Fab, V domains shown, not shown: a dimerising Fc or GST)
VH: EVQLLESGGGLVQPGGSLRLSCAASGFDFRSYAMMWVRQAPGKGLEWVGGINGEVGGSNTYYAPAVKGRATISRDNSKNTLYLQMNSLRAEDTAVYYCVKGAGACGICNDDIDAWGQGTLVTVSS
VL: SYELTQDPAVSVALGQTVRITCSGAGSYAGSYYYGWHQQKPGQAPVTVIYDNDKRPSNIPDRFSGSSSGNTASLTITGAQAEDEADYYCGSTNDNDDGGLFGSGTKVTVLG
notes: monomeric Fab made by GingisKHAN digestion of the IgG1
B2: Fab fragment of antibody 15532 (Fab, V domains shown, not shown: a dimerising Fc or GST)
VH: QVQLQQWGAGLLRPSETLSLTCAVYGESFSGYYWNWIRQPPGKGLEWIGEINHSGSTNYNPSLKSRVTISVDTSKTQFSLKLSSVTAADTAVYYCARGWDLLDWNDYWNEYWGQGTLVTVSS
VL: EIVLTQSPATLSLSPGERATLSCRASQSVSSYLAWYQQKPGQAPRLLIYDASNRATGIPARFSGSGSGTDFTLTISSLEPEDFAVYYCQQRSNWPLTFGGGTKVEIKR
notes: as for B1
B3: Fab fragment of antibody 15431 (Fab, V domains shown, not shown: a dimerising Fc or GST)
VH: QVQLQQSGPGLVKPSQTLSLTCAISGDSVSSNSAAWNWIRQSPSRGLEWLGRTYYRSKWYNDYAVSVKSRITINPDTSKNQFSLQLNSVTPEDTAVYYCARDDDWNDFDYWGQGTLVTVSS
VL: EIVLTQSPATLSLSPGERATLSCRASQSVSSYLAWYQQKPGQAPRLLIYDASNRATGIPARFSGSGSGTDFTLTISSLEPEDFAVYYCQQRSNWPLTFGGGTKVEIKR
notes: as for B1
B4: Fab fragment of antibody 15572 (Fab, V domains shown, not shown: a dimerising Fc or GST)
VH: QLQLQESGPGLVKPSETLSLTCTVSGDSISSSSYYWGWIRQPPGKGLEWIGSIFYSGNTYYNPSLKSRVTISVDTSKNQFSLKLSSVTAADTAVYYCAREDDFLTDYYGAFDIWGQGTMVTVSS
VL: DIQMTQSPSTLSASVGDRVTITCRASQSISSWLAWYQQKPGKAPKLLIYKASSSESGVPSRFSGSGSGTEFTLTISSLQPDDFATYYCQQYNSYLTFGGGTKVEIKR
notes: as for B1

What was measured:
Assay in all cases: SPR, Fab over captured mutant LAG-3-Fc;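 also: fc fusion variants captured on anti-human IgG Fc sensor, Fab injected with association then dissociation phases, KD obtained from Langmuir one-to-one fit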
[1] = biological target: T1, human LAG-3 domain 1-2 Fc fusion, point …
Procedure: (§1) The LAG-3 fusion proteins were immobilized onto a G-a-hu-IgG Fc SensEye® (Ssens BV, The Netherlands) for 15 minutes using a Continuous Flow Microspotter (CFM, Wasatch Microfluidics, Salt Lake City, US). After spotting, the SensEye® was positioned in an IBIS MX96 biosensor and captured proteins were evaluated for binding affinity. […] Fab association was performed for 15 minutes and antigen dissociation was performed for 15 minutes. The recorded binding responses were fitted to a simple Langmuir 1:1 binding model with Scrubber 2 software for calculation of the on-rate (kon or ka), off-rate (koff or kd) and affinity (KD) constants.

[2] = biological target: T2, human LAG-3 domain 1-2 Fc fusion, point …
Procedure: as §1

[3] = biological target: T3, human LAG-3 domain 1-2 Fc fusion, point …
Procedure: as §1

[4] = biological target: T4, human LAG-3 domain 1-2 Fc fusion, point …
Procedure: as §1

[5] = biological target: T5, human LAG-3 domain 1-2 Fc fusion, point …
Procedure: as §1

[6] = biological target: T6, human LAG-3 domain 1-2 Fc fusion, point …
Procedure: as §1

[7] = biological target: T7, human LAG-3 domain 1-2 Fc fusion, point …
Procedure: as §1

[8] = biological target: T8, human LAG-3 domain 1-2 Fc fusion, point …
Procedure: as §1

Binder | KD mutant/KD wild type [1] [fold] | KD mutant/KD wild type [2] [fold] | KD mutant/KD wild type [3] [fold] | KD mutant/KD wild type [4] [fold] | KD mutant/KD wild type [5] [fold] | KD mutant/KD wild type [6] [fold] | KD mutant/KD wild type [7] [fold] | KD mutant/KD wild type [8] [fold] | binding result [8] | binding result [1] | binding result [2] | binding result [7]
B1 | 0.6 | 0.5 | 0.7 | 0.9 | 0.7 | 3.1 | 0.6 | 1 | – | – | – | –
B2 | 2.2 | 3.8 | 6.1 | 14.2 | 1.2 | 1 | 4.2 | – | no binding (tested: 300 nM) | – | – | –
B3 | – | – | 0.6 | 0.8 | 0.3 | 0.5 | – | 1 | – | no binding (tested: 300 nM) | no binding (tested: 300 nM) | no binding (tested: 300 nM)
B4 | – | – | 0.7 | 0.8 | 0.7 | 0.5 | – | 0.9 | – | no binding (tested: 300 nM) | no binding (tested: 300 nM) | no binding (tested: 300 nM)
